Data from PMC10683472, “Deep Learning-Driven Library Design for the De Novo Discovery of Bioactive Thiopeptides” (ACS Central Science, 2023).

Biological target: T1, IRAK4 (Homo sapiens, UniProt Q9NWZ3)
T1 sequence (Q9NWZ3 1-460): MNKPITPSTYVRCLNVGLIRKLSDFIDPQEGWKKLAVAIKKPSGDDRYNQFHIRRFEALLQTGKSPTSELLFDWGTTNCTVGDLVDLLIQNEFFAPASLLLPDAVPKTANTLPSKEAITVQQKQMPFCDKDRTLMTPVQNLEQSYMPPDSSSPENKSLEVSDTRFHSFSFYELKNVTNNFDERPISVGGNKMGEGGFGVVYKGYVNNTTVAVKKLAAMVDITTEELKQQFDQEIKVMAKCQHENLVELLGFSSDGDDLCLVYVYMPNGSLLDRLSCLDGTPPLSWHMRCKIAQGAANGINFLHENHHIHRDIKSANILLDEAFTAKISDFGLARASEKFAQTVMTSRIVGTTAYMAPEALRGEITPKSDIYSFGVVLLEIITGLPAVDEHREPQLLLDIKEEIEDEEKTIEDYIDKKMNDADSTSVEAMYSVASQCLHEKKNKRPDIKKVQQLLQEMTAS
Test: mRNA display affinity selection against IRAK4, NGS abundance
Format: binding
Parameters: acids 1-460; NP_057207.2) was purchased from Carna Biosciences; purchased Carna Biosciences (Kobe, Japan)
Settings: Top100 selection hits, NGS

Sequence | Library fraction (IRAK4 selection pulldown (-)) | Raw reads (IRAK4 selection pulldown (-)) | Library fraction (IRAK4 selection pulldown (+)) | Raw reads (IRAK4 selection pulldown (+))
SMKRQFITWHWT | 0.376 | 50248 | – | –
SLLWKRRICR | 0.00016 | 21 | 0.0006 | 65
SMHRRYITWRWT | 0.115 | 15412 | – | –
SLLWKRRVYT | 0.0001 | 14 | 0.0002 | 17
SQRWRCRNYQ | 0.002 | 267 | 0.0011 | 116
SLLWKRRCYN | 0.00172 | 230 | 0.0038 | 409
SVFWNRRIYK | 0.00016 | 21 | 0.0006 | 68
CQCWNRRNWT | 0.00037 | 49 | 0.0003 | 35
SMLFKRRIYK | 0.165 | 22079 | 0.211 | 22521
TMKRIVINWGWG | 0.0001 | 14 | – | –
RMLWKRRMWH | 0.00041 | 55 | 0.0011 | 118
SMKRQFITWRWT | 0.00015 | 20 | – | –
RQRWRGRKYH | 0.00011 | 15 | 0.0001 | 8
TMLWKRRIHA | 0.00136 | 181 | 0.003 | 323
SMLFKRRVYK | – | – | 0.0001 | 10
TLCWKRRTWK | 0.018 | 2408 | 0.026 | 2745
TQRWNNRNWC | 0.00014 | 19 | 0.0003 | 29
SILWKKRVWK | 0.009 | 1218 | 0.016 | 1700
RLLWRRRNYA | 0.00106 | 142 | 0.0009 | 98
SQLYKRRIWM | – | – | 0.0001 | 9
SMKRQFITRHWT | 7e-5 | 9 | – | –

Sequence | Library fraction (IRAK4 selection pulldown (-)) | Raw reads (IRAK4 selection pulldown (-)) | Library fraction (IRAK4 selection pulldown (+)) | Raw reads (IRAK4 selection pulldown (+))
SQRYKQRCYK | 0.0012 | 160 | 0.0017 | 182
SIFWRRRIYK | 0.00048 | 64 | 0.002 | 228
STRWKRRNYT | 0.00016 | 22 | 0.0004 | 39
SLLWHRRIYC | – | – | 0.0002 | 19
TLLWKRRIYK | 0.00132 | 176 | 0.0019 | 207
RLLWKRRNYQ | 0.00025 | 33 | 0.0002 | 25
TQYWKRRIYN | 0.00241 | 322 | 0.007 | 748
SMERQFITWHWT | 0.00013 | 17 | – | –
SMRRQFITWHWT | 9e-5 | 12 | – | –
RLFWKRRRYA | 0.00016 | 21 | 0.0004 | 42
SVLWKKRVWQ | 0.00139 | 186 | 0.003 | 318
ARLWRRRIYQ | 0.00049 | 66 | 0.0001 | 11
SVLWKRRIWK | 0.020 | 2704 | 0.033 | 3569
SVLWRKRIYR | 0.00143 | 191 | 0.0037 | 391
SLRWKNRNHK | 0.00013 | 17 | 0.0006 | 62
SQRYKRRNYK | 0.00037 | 49 | 0.0009 | 92
SMKRQLITWHWT | 0.00037 | 50 | – | –
SMLFKRRIYR | – | – | 0.0001 | 15
SILWKKHIYK | 0.00093 | 124 | 0.0035 | 369
SMKRRFITWHWT | 8e-5 | 11 | – | –
TADGLILTPWVT | 0.00281 | 375 | 0.0001 | 15

Results, then the sequence that gave them:

Library fraction (IRAK4 selection pulldown (-)) | Raw reads (IRAK4 selection pulldown (-)) | Library fraction (IRAK4 selection pulldown (+)) | Raw reads (IRAK4 selection pulldown (+)) | Sequence
– | – | 0.0001 | 9 | TMLWKRRLFR
0.007 | 903 | 0.0046 | 492 | SVRWKRRDYR
– | – | 0.0001 | 14 | GPLLWNTRIYC
0.00057 | 76 | 0.0007 | 78 | SLLWKRRVYC
– | – | 0.0001 | 15 | MMLWKRRMYK
8e-5 | 11 | – | – | RQRWRSRDYA
0.014 | 1900 | 0.009 | 985 | SRLWRRRIYH
0.00016 | 22 | 0.0002 | 24 | SVCWKRRNCH
0.00025 | 33 | 0.0001 | 12 | TQRYLSKNYK
0.00051 | 68 | 0.0008 | 85 | AQRWRRRCYH
– | – | 0.0001 | 14 | STYRKRRIWY
0.00036 | 48 | 0.0016 | 168 | SMLWGRRIYR
8e-5 | 11 | 0.0001 | 9 | SIMWKRRVFK
0.00021 | 28 | 0.0006 | 61 | ALLWRRRNYH
9e-5 | 12 | 0.0001 | 10 | SRLWRRRIFQ
7e-5 | 10 | – | – | SMKRKFITWHWT
– | – | 0.0001 | 10 | TCLWKRRIYS
0.00857 | 1144 | 0.0028 | 304 | AMSLYWARRRPH
